Numbering of substitutions follows the chain as printed. Where two headings read alike, the source gives them in different places.
Legend:
[1] = target: Canine FcRn-B2M recombinant protein (Immunitrack) (canine); assay: SPR (Biacore 8K), canine FcRn-B2M amine-coupled on CM5 chip, running buffer pH 6, steady state affinity
[2] = target: T1, Murine FcRn-B2M recombinant protein (Immunitrack) (murine, UniProt Q61559 22-297; P01887 21-119, limits assumed); assay: SPR (Biacore 8K), murine FcRn-B2M amine-coupled on CM5 chip, running buffer pH 6, steady state affinity
T1 construct: Bought reagent, amine-coupled to a CM5 chip; also called murine neonatal receptor
T1 sequence (looked up): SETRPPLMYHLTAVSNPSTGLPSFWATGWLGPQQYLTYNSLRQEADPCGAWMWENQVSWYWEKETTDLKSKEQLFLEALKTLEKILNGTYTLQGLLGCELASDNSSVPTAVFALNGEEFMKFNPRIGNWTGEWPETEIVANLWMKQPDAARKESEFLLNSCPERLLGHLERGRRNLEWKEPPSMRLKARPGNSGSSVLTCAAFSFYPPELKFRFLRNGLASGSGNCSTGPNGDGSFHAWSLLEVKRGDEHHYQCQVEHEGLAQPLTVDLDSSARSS
T1 sequence (b2m, looked up): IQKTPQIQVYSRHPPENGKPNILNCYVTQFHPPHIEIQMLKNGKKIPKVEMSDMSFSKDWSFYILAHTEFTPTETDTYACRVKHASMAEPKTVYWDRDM
Method: (§1) Briefly, CM5 Sensor Chip (Cytiva) was docked into Biacore 8K, equilibrated for 30' at RT and then Running Buffer (10 mM HEPES pH6 150 mM NaCl 3 mM EDTA and 0.005% Tween20) was applied to the SPR chip surface.
(§2) Canine and murine FcRn-B2M recombinant protein (Immunitrack, ITF12-ITF08) was diluted into 10 mM acetate buffer pH4.5 at 4 nM (1:2000 dilution from stock) and immobilised using standard amine coupling reaction.

[3] = target: T2, Rat nerve growth factor (NGF) (rat, UniProt P25427 122-241); assay: SPR (Biacore 8K), PetML119 captured on Protein A chip, rat NGF as analyte, kinetics affinity
T2 construct: Bought reagent; also called rat NGF
T2 sequence (P25427 122-241 limits assumed): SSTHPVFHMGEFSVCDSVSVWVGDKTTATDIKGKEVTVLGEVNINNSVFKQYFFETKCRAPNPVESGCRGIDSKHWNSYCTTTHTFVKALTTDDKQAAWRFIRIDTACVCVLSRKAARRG
Method: (§3) Briefly, Protein A Sensor Chip (Cytiva) was docked into Biacore 8K, equilibrated for 30' at RT and then Running Buffer (10 mM HEPES pH7.4 150 mM NaCl 3 mM EDTA and 0.005% Tween20) was applied to the SPR chip surface.
(§4) These have been immobilised using 90 sec association at 10 uL/min as capturing step, followed by injection of running buffer to remove any unbound product.
(§5) Kinetics were assessed using multi-cycle kinetics with capture step method (30 sec association-120 sec dissociation) followed by regeneration step (0.1M Glycine pH2.2 contact time 60 sec FR 30 uL/min).

[4] = target: T3, Human nerve growth factor (NGF) (human, UniProt P01138 122-241); assay: cell-based or functional assay
T3 sequence (P01138 122-241 limits assumed): as the sequence (P25427 122-241 limits assumed) above, with T3S, V6I, M9R, T37M, A60D, E65D, T92M, D94G, A117V, G120A counted along it

[5] = target: T3, Human nerve growth factor (NGF); assay: SPR (Biacore 8K), PetML119 captured on Protein A chip, human NGF as analyte, kinetics affinity
Method: as §3, §4, §5

[6] = target: T1, Murine FcRn-B2M recombinant protein …; assay: SPR (Biacore 8K), murine FcRn-B2M amine-coupled on CM5 chip, running buffer pH 6, steady state affinity; remark: listed apart in the source
Method: as §1, §2

[7] = target: T1, Murine FcRn-B2M recombinant protein …; assay: SPR (Biacore 8K), murine FcRn-B2M amine-coupled on CM5, pH 6, multi-cycle kinetics; reference not named, taken as PetML119 (wild type Fc)
Method: as §1, §2

[8] = target: T3, Human nerve growth factor (NGF); assay: SPR (Biacore 8K), human NGF as analyte on Bedinvetmab, kinetics affinity, 1:1 binding fit

PetML122 (canine p75NTR ECD - canine Fc YTE protein fusion) (Fc fusion)
Kd [1]: 400 nM

PetML119 (canine p75NTR ECD - canine IgGB wt Fc protein fusion) (Fc fusion)
Kd [1]: 6000 nM

B1: PetML119 (canine p75NTR ECD - canine IgGB wt Fc protein fusion) (Fc fusion)
chain: KEACPTGLYTHSGECCKACNLGEGVAQPCGANQTVCEPCLDSVTFSDVVSATEPCKPCTECVGLQSMSAPCVEADDAVCRCAYGYYQDETTGRCEACRVCEAGSGLVFSCQDRQNTVCEECPDGTYSDEANHVDPCLPCTVCEDTERQLRECTRWADAECEEIPGGGGRENGRVPRPPDCPKCPAPEMLGGPSVFIFPPKPKDTLLIARTPEVTCVVVDLDPEDPEVQISWFVDGKQMQTAKTQPREEQFNGTYRVVSVLPIGHQDWLKGKQFTCKVNNKALPSPIERTISKARGQAHQPSVYVLPPSREELSKNTVSLTCLIKDFFPPDIDVEWQSNGQQEPESKYRTTPPQLDEDGSYFLYSKLSVDKSRWQRGDTFICAVMHEALHNHYTQKSLSHSPGK
notes: also called PetMI119; Fc-Bwt
Kd [2]: 2000 nM
Kd [3]: 0.12 nM
IC50 (nM), inhibition of TF-1 cell proliferation [4]: 15.2 nM
Kd [5]: 0.12 nM

B2: PetML122 (canine p75NTR ECD - canine Fc YTE protein fusion) (Fc fusion)
chain: B1 chain with L206Y, A208T, T210E
notes: Same construct as PetML119, but with the YTE triple mutation in the Fc; also called PetMI122; Fc-B-YTE
Kd [6]: 90 nM
fold increase in binding affinity [7]: 10 fold
IC50 (nM), inhibition of TF-1 cell proliferation [4]: 5.91 nM

B3: Bedinvetmab (antibody, V domains shown)
VH: EVQLVESGGDLVKPGGSLRLSCVASGFTFSSHGMHWVRQSPGKGLQWVAVINSGGSSTYYTDAVKGRFTISRDNAKNTVYLQMNSLRAEDTAMYYCAKESVGGWEQLVGPHFDYWGQGTLVIVSS
VL: QSVLTQPTSVSGSLGQRVTISCSGSTNNIGILGASWYQLFPGKAPKLLVYGNGNRPSGVPDRFSGADSGDSVTLTITGLQAEDEADYYCQSFDTTLGAHVFGGGTHLTVL
Kd [8]: 0.073 nM
IC50 (nM), inhibition of TF-1 cell proliferation [4]: 1.65 nM

From patent publication US11608371 (PETMEDIX, dated 2023)
